± gives the uncertainty stated by the source.
B1: library; numbered along this chain (parent)
chain: MEVVDPQQLGMFTEGELMSVGMDTFIHRIDSTEVIYQPRRKRAKLIGKYLMGDLLGEGSYGKVKEVLDSETLCRRAVKILKKKKLRRIPNGEANVKKEIQLLRRLRHKNVIQLVDVLYNEEKQKMYMVMEYCVCGMQEMLDSVPEKRFPVCQAHGYFCQLIDGLEYLHSQGIVHKDIKPGNLLLTTGGTLKISDLGVAEALHPFAADDTCRTSQGSPAFQPPEIANGLDTFSGFKVDIWSAGVTLYNITTGLYPFEGDNIYKLFENIGKGSYAIPGDCGPPLSDLLKGMLEYEPAKRFSIRQIRQHSWFRKKHPPAEAPVPIPPSPDTKDRWRSMTVVPYLEDLHGADEDEDLFDIEDDIIYTQDFTVPGQVPEEEASHNGQRRGLPKAVCMNGTEAAQLSTKSRAEGRAPNPARKACSASSKIRRLSACKQQ

Variants of: B1
Assay: STK11 functional score (HeLa growth suppression), rescaled enrichment; synonymous median = 1, nonsense median = 0 (normalised score)
Details: with HeLa; variant type: missense
Experimental: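 Deep mutational scan (TileSeq/POPCode codon randomisation) of full-length codon-optimised STK11 cDNA integrated at a Bxb1 landing pad (AAVS1) in HeLa cells. Restoring functional STK11 suppresses HeLa proliferation. Variant frequencies were measured by NGS before and after about two weeks of growth. The error-corrected enrichment log-ratio was rescaled so that synonymous median = 1 and nonsense median = 0, scores above 1 were compressed, and codon-level and three biological replicate scores were combined; error is the bootstrapped standard error. Scale: synonymous median = 1, nonsense median = 0; below 0.5 = damaging.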

Variant | STK11 functional score
MEVVDPGQLGMFTEGELMSVGMDTFIHRIDSTEVIYQPRRKRAKLIGKYLMGDLLGEGSYGKVKEVLDSETLCRRAVKILKKKKLRRIPNGEANVKKEIQLLRRLRHKNVIQLVDVLYNEEKQKMYMVMEYCVCGMQEMLDSVPEKRFPVCQAHGYFCQLIDGLEYLHSQGIVHKDIKPGNLLLTTGGTLKISDLGVAEALHPFAADDTCRTSQGSPAFQPPEIANGLDTFSGFKVDIWSAGVTLYNITTGLYPFEGDNIYKLFENIGKGSYAIPGDCGPPLSDLLKGMLEYEPAKRFSIRQIRQHSWFRKKHPPAEAPVPIPPSPDTKDRWRSMTVVPYLEDLHGADEDEDLFDIEDDIIYTQDFTVPGQVPEEEASHNGQRRGLPKAVCMNGTEAAQLSTKSRAEGRAPNPARKACSASSKIRRLSACKQQ [Q7G] | 0.637 ± 0.11
MEVVDPYQLGMFTEGELMSVGMDTFIHRIDSTEVIYQPRRKRAKLIGKYLMGDLLGEGSYGKVKEVLDSETLCRRAVKILKKKKLRRIPNGEANVKKEIQLLRRLRHKNVIQLVDVLYNEEKQKMYMVMEYCVCGMQEMLDSVPEKRFPVCQAHGYFCQLIDGLEYLHSQGIVHKDIKPGNLLLTTGGTLKISDLGVAEALHPFAADDTCRTSQGSPAFQPPEIANGLDTFSGFKVDIWSAGVTLYNITTGLYPFEGDNIYKLFENIGKGSYAIPGDCGPPLSDLLKGMLEYEPAKRFSIRQIRQHSWFRKKHPPAEAPVPIPPSPDTKDRWRSMTVVPYLEDLHGADEDEDLFDIEDDIIYTQDFTVPGQVPEEEASHNGQRRGLPKAVCMNGTEAAQLSTKSRAEGRAPNPARKACSASSKIRRLSACKQQ [Q7Y] | 1.22 ± 0.087
MEVVDPSQLGMFTEGELMSVGMDTFIHRIDSTEVIYQPRRKRAKLIGKYLMGDLLGEGSYGKVKEVLDSETLCRRAVKILKKKKLRRIPNGEANVKKEIQLLRRLRHKNVIQLVDVLYNEEKQKMYMVMEYCVCGMQEMLDSVPEKRFPVCQAHGYFCQLIDGLEYLHSQGIVHKDIKPGNLLLTTGGTLKISDLGVAEALHPFAADDTCRTSQGSPAFQPPEIANGLDTFSGFKVDIWSAGVTLYNITTGLYPFEGDNIYKLFENIGKGSYAIPGDCGPPLSDLLKGMLEYEPAKRFSIRQIRQHSWFRKKHPPAEAPVPIPPSPDTKDRWRSMTVVPYLEDLHGADEDEDLFDIEDDIIYTQDFTVPGQVPEEEASHNGQRRGLPKAVCMNGTEAAQLSTKSRAEGRAPNPARKACSASSKIRRLSACKQQ [Q7S] | 1.02 ± 0.31
MEVVDPEQLGMFTEGELMSVGMDTFIHRIDSTEVIYQPRRKRAKLIGKYLMGDLLGEGSYGKVKEVLDSETLCRRAVKILKKKKLRRIPNGEANVKKEIQLLRRLRHKNVIQLVDVLYNEEKQKMYMVMEYCVCGMQEMLDSVPEKRFPVCQAHGYFCQLIDGLEYLHSQGIVHKDIKPGNLLLTTGGTLKISDLGVAEALHPFAADDTCRTSQGSPAFQPPEIANGLDTFSGFKVDIWSAGVTLYNITTGLYPFEGDNIYKLFENIGKGSYAIPGDCGPPLSDLLKGMLEYEPAKRFSIRQIRQHSWFRKKHPPAEAPVPIPPSPDTKDRWRSMTVVPYLEDLHGADEDEDLFDIEDDIIYTQDFTVPGQVPEEEASHNGQRRGLPKAVCMNGTEAAQLSTKSRAEGRAPNPARKACSASSKIRRLSACKQQ [Q7E] | 1.27 ± 0.34
MEVVDPIQLGMFTEGELMSVGMDTFIHRIDSTEVIYQPRRKRAKLIGKYLMGDLLGEGSYGKVKEVLDSETLCRRAVKILKKKKLRRIPNGEANVKKEIQLLRRLRHKNVIQLVDVLYNEEKQKMYMVMEYCVCGMQEMLDSVPEKRFPVCQAHGYFCQLIDGLEYLHSQGIVHKDIKPGNLLLTTGGTLKISDLGVAEALHPFAADDTCRTSQGSPAFQPPEIANGLDTFSGFKVDIWSAGVTLYNITTGLYPFEGDNIYKLFENIGKGSYAIPGDCGPPLSDLLKGMLEYEPAKRFSIRQIRQHSWFRKKHPPAEAPVPIPPSPDTKDRWRSMTVVPYLEDLHGADEDEDLFDIEDDIIYTQDFTVPGQVPEEEASHNGQRRGLPKAVCMNGTEAAQLSTKSRAEGRAPNPARKACSASSKIRRLSACKQQ [Q7I] | 1.61 ± 0.17
MEVVDPWQLGMFTEGELMSVGMDTFIHRIDSTEVIYQPRRKRAKLIGKYLMGDLLGEGSYGKVKEVLDSETLCRRAVKILKKKKLRRIPNGEANVKKEIQLLRRLRHKNVIQLVDVLYNEEKQKMYMVMEYCVCGMQEMLDSVPEKRFPVCQAHGYFCQLIDGLEYLHSQGIVHKDIKPGNLLLTTGGTLKISDLGVAEALHPFAADDTCRTSQGSPAFQPPEIANGLDTFSGFKVDIWSAGVTLYNITTGLYPFEGDNIYKLFENIGKGSYAIPGDCGPPLSDLLKGMLEYEPAKRFSIRQIRQHSWFRKKHPPAEAPVPIPPSPDTKDRWRSMTVVPYLEDLHGADEDEDLFDIEDDIIYTQDFTVPGQVPEEEASHNGQRRGLPKAVCMNGTEAAQLSTKSRAEGRAPNPARKACSASSKIRRLSACKQQ [Q7W] | 1.1 ± 0.13
MEVVDPRQLGMFTEGELMSVGMDTFIHRIDSTEVIYQPRRKRAKLIGKYLMGDLLGEGSYGKVKEVLDSETLCRRAVKILKKKKLRRIPNGEANVKKEIQLLRRLRHKNVIQLVDVLYNEEKQKMYMVMEYCVCGMQEMLDSVPEKRFPVCQAHGYFCQLIDGLEYLHSQGIVHKDIKPGNLLLTTGGTLKISDLGVAEALHPFAADDTCRTSQGSPAFQPPEIANGLDTFSGFKVDIWSAGVTLYNITTGLYPFEGDNIYKLFENIGKGSYAIPGDCGPPLSDLLKGMLEYEPAKRFSIRQIRQHSWFRKKHPPAEAPVPIPPSPDTKDRWRSMTVVPYLEDLHGADEDEDLFDIEDDIIYTQDFTVPGQVPEEEASHNGQRRGLPKAVCMNGTEAAQLSTKSRAEGRAPNPARKACSASSKIRRLSACKQQ [Q7R] | 1.38 ± 0.13
MEVVDPPQLGMFTEGELMSVGMDTFIHRIDSTEVIYQPRRKRAKLIGKYLMGDLLGEGSYGKVKEVLDSETLCRRAVKILKKKKLRRIPNGEANVKKEIQLLRRLRHKNVIQLVDVLYNEEKQKMYMVMEYCVCGMQEMLDSVPEKRFPVCQAHGYFCQLIDGLEYLHSQGIVHKDIKPGNLLLTTGGTLKISDLGVAEALHPFAADDTCRTSQGSPAFQPPEIANGLDTFSGFKVDIWSAGVTLYNITTGLYPFEGDNIYKLFENIGKGSYAIPGDCGPPLSDLLKGMLEYEPAKRFSIRQIRQHSWFRKKHPPAEAPVPIPPSPDTKDRWRSMTVVPYLEDLHGADEDEDLFDIEDDIIYTQDFTVPGQVPEEEASHNGQRRGLPKAVCMNGTEAAQLSTKSRAEGRAPNPARKACSASSKIRRLSACKQQ [Q7P] | 0.819 ± 0.22
MEVVDPMQLGMFTEGELMSVGMDTFIHRIDSTEVIYQPRRKRAKLIGKYLMGDLLGEGSYGKVKEVLDSETLCRRAVKILKKKKLRRIPNGEANVKKEIQLLRRLRHKNVIQLVDVLYNEEKQKMYMVMEYCVCGMQEMLDSVPEKRFPVCQAHGYFCQLIDGLEYLHSQGIVHKDIKPGNLLLTTGGTLKISDLGVAEALHPFAADDTCRTSQGSPAFQPPEIANGLDTFSGFKVDIWSAGVTLYNITTGLYPFEGDNIYKLFENIGKGSYAIPGDCGPPLSDLLKGMLEYEPAKRFSIRQIRQHSWFRKKHPPAEAPVPIPPSPDTKDRWRSMTVVPYLEDLHGADEDEDLFDIEDDIIYTQDFTVPGQVPEEEASHNGQRRGLPKAVCMNGTEAAQLSTKSRAEGRAPNPARKACSASSKIRRLSACKQQ [Q7M] | 0.16 ± 0.091
MEVVDPLQLGMFTEGELMSVGMDTFIHRIDSTEVIYQPRRKRAKLIGKYLMGDLLGEGSYGKVKEVLDSETLCRRAVKILKKKKLRRIPNGEANVKKEIQLLRRLRHKNVIQLVDVLYNEEKQKMYMVMEYCVCGMQEMLDSVPEKRFPVCQAHGYFCQLIDGLEYLHSQGIVHKDIKPGNLLLTTGGTLKISDLGVAEALHPFAADDTCRTSQGSPAFQPPEIANGLDTFSGFKVDIWSAGVTLYNITTGLYPFEGDNIYKLFENIGKGSYAIPGDCGPPLSDLLKGMLEYEPAKRFSIRQIRQHSWFRKKHPPAEAPVPIPPSPDTKDRWRSMTVVPYLEDLHGADEDEDLFDIEDDIIYTQDFTVPGQVPEEEASHNGQRRGLPKAVCMNGTEAAQLSTKSRAEGRAPNPARKACSASSKIRRLSACKQQ [Q7L] | 1.25 ± 0.13
MEVVDPDQLGMFTEGELMSVGMDTFIHRIDSTEVIYQPRRKRAKLIGKYLMGDLLGEGSYGKVKEVLDSETLCRRAVKILKKKKLRRIPNGEANVKKEIQLLRRLRHKNVIQLVDVLYNEEKQKMYMVMEYCVCGMQEMLDSVPEKRFPVCQAHGYFCQLIDGLEYLHSQGIVHKDIKPGNLLLTTGGTLKISDLGVAEALHPFAADDTCRTSQGSPAFQPPEIANGLDTFSGFKVDIWSAGVTLYNITTGLYPFEGDNIYKLFENIGKGSYAIPGDCGPPLSDLLKGMLEYEPAKRFSIRQIRQHSWFRKKHPPAEAPVPIPPSPDTKDRWRSMTVVPYLEDLHGADEDEDLFDIEDDIIYTQDFTVPGQVPEEEASHNGQRRGLPKAVCMNGTEAAQLSTKSRAEGRAPNPARKACSASSKIRRLSACKQQ [Q7D] | 1.33 ± 0.08
MEVVDPAQLGMFTEGELMSVGMDTFIHRIDSTEVIYQPRRKRAKLIGKYLMGDLLGEGSYGKVKEVLDSETLCRRAVKILKKKKLRRIPNGEANVKKEIQLLRRLRHKNVIQLVDVLYNEEKQKMYMVMEYCVCGMQEMLDSVPEKRFPVCQAHGYFCQLIDGLEYLHSQGIVHKDIKPGNLLLTTGGTLKISDLGVAEALHPFAADDTCRTSQGSPAFQPPEIANGLDTFSGFKVDIWSAGVTLYNITTGLYPFEGDNIYKLFENIGKGSYAIPGDCGPPLSDLLKGMLEYEPAKRFSIRQIRQHSWFRKKHPPAEAPVPIPPSPDTKDRWRSMTVVPYLEDLHGADEDEDLFDIEDDIIYTQDFTVPGQVPEEEASHNGQRRGLPKAVCMNGTEAAQLSTKSRAEGRAPNPARKACSASSKIRRLSACKQQ [Q7A] | 1 ± 0.43
MEVVDPCQLGMFTEGELMSVGMDTFIHRIDSTEVIYQPRRKRAKLIGKYLMGDLLGEGSYGKVKEVLDSETLCRRAVKILKKKKLRRIPNGEANVKKEIQLLRRLRHKNVIQLVDVLYNEEKQKMYMVMEYCVCGMQEMLDSVPEKRFPVCQAHGYFCQLIDGLEYLHSQGIVHKDIKPGNLLLTTGGTLKISDLGVAEALHPFAADDTCRTSQGSPAFQPPEIANGLDTFSGFKVDIWSAGVTLYNITTGLYPFEGDNIYKLFENIGKGSYAIPGDCGPPLSDLLKGMLEYEPAKRFSIRQIRQHSWFRKKHPPAEAPVPIPPSPDTKDRWRSMTVVPYLEDLHGADEDEDLFDIEDDIIYTQDFTVPGQVPEEEASHNGQRRGLPKAVCMNGTEAAQLSTKSRAEGRAPNPARKACSASSKIRRLSACKQQ [Q7C] | 1.55 ± 0.45
MEVVDPVQLGMFTEGELMSVGMDTFIHRIDSTEVIYQPRRKRAKLIGKYLMGDLLGEGSYGKVKEVLDSETLCRRAVKILKKKKLRRIPNGEANVKKEIQLLRRLRHKNVIQLVDVLYNEEKQKMYMVMEYCVCGMQEMLDSVPEKRFPVCQAHGYFCQLIDGLEYLHSQGIVHKDIKPGNLLLTTGGTLKISDLGVAEALHPFAADDTCRTSQGSPAFQPPEIANGLDTFSGFKVDIWSAGVTLYNITTGLYPFEGDNIYKLFENIGKGSYAIPGDCGPPLSDLLKGMLEYEPAKRFSIRQIRQHSWFRKKHPPAEAPVPIPPSPDTKDRWRSMTVVPYLEDLHGADEDEDLFDIEDDIIYTQDFTVPGQVPEEEASHNGQRRGLPKAVCMNGTEAAQLSTKSRAEGRAPNPARKACSASSKIRRLSACKQQ [Q7V] | 1.37 ± 0.27

Reference: the supplement of paper PMC12338614
